# B1: NR2B-BD: peptide of amino acids 886-1310 of the NR2B C-terminal domain that binds RasGRF1; used as NusA or EGFP fusion (protein)
# chain: SPTATMNNTHSNILRLLRTAKNMANLSGVNGSPQSALDFIRRESSVYDISEHRRSFTHSDCKSYNNPPCEENLFSDYISEVERTFGNLQLKDSNVYQDHYHHHHRPHSIGSTSSIDGLYDCDNPPFTTQPRSISKKPLDIGLPSSKHSQLSDLYGKFSFKSDRYSGHDDLIRSDVSDISTHTVTYGNIEGNAAKRRKQQYKDSLKKRPASAKSRREFDEIELAYRRRPPRSPDHKRYFRDKEGLRDFYLDQFRTKENSPHWEHVDLTDIYKERSDDFKRDSVSGGGPCTNRSHLKHGTGEKHGVVGGVPAPWEKNLTNVDWEDRSGGNFCRSCPSKLHNYSSTVAGQNSGRQACIRCEACKKAGNLYDISKDNSLQELDQPAAPVAVTSNASSTKYPQSPTNSKAQKKNRNKLRRQHSYDTFVDL
# modifications: left off: small tags and cut ends
# notes: used as NusA or EGFP fusion
# Key:
# Format in all cases: cell-based, rat
# NR2B = assay: immunocytochemistry of NR2B and PSD-95 clusters in cultured neurons
# Source text: Coverslips with cultured neurons were fixed with 4% paraformaldehyde, permeabilized with 0.3% Triton X-100, and blocked in 10% goat serum in PBS. A rabbit polyclonal antibody against the N terminus of the NR2B subunit of the NMDA receptor (AB1557P, Chemicon, Temecula, Calif.) was used for detection in neurons expressing GFP and RasGRF1-BD. These antibodies could not be used for study of the NR2B subunit distribution in neurons expressing NR2B-BD since they recognized the expressed construct. The distribution of NR2A/B subunit was determined using polyclonal antibody AB 1548 (Chemicon). A mouse monoclonal antibody (clone K 28/43, Upstate, Waltham, Mass.) was used to detect PSD-95. Secondary antibodies were the same as that used for detection of ERK and MAP2. To quantify the distribution of clusters in transfected cells, we first focused on dendrites of neurons expressing the EGFP fluorescent construct. Thereafter, fluorescent images of GFP, NR2B, and PSD-95 were acquired confocally (60×; NA 1.4 objective, zoom 5). Cluster density and brightness were analyzed with the MetaMorph Imaging System (Universal Imaging, Westchester, Pa.). Ten neurons were analyzed from each experiment (3-4 dendritic regions for each neuron).
# hippocampal neurons = assay: Assay I: glutamate excitotoxicity in primary cultures of dissociated hippocampal neurons; conditions: 20 minute exposure to Glutamate (100 μM) and Glycine (10 μM); expression in neurons; n=5
# Experimental: (§1) (A) Survival of hippocampal neurons in culture exposed to Glutamate (100 μM) and Glycine (10 μM) for a 20 minute period. 14 div neuronal cultures were transfected with GFP, NR2B-BD or RasGRF1-BD 24 hours prior to analysis. The neuronal cultures were then incubated with glutamate for 20 minutes, washed with culture media and returned to the incubator for an additional 24 hours. The cells were then fixed with PFA and stained with a neuronal specific antibody, Map2. […] (B) Percentage of propidium iodide-resistant (surviving) neurons in organotypic hippocampal slices (P5+7div) expressing GFP, NR2B-BD or […] in control conditions and after 20 minutes exposure to NMDA (50 μM). The fluorescence of propidium iodide (PI) was measured 24 hours later. PI enters damaged cells and is a convenient tool to determine neuronal cell death. For PI staining, the slices were incubated in culture medium containing 0.1 mg/ml PI for 2 h. GFP, NR2B-BD and RafGRF-BD were expressed using the SindBis expression system. Mean±SEM. N=3.
# Assay I: primary cultures of dissociated hippocampal neurons (FIG. 7(A)). This method may be used to analyze the mechanisms of glutamate-dependent excitotoxicity (see e.g., Medina, et al., Eur J Neurosci. (1999) 11(4): 1167-78). Briefly, neuronal cell death was induced by a 20 minute exposure to Glutamate (100 μM) and Glycine (10 μM). […]
# CA1 pyramidal neurons = assay: Assay II: propidium iodide (PI) resistance in organotypic hippocampal slice cultures; conditions: NMDA (50 μM) 20 minutes or ischemia; compared to non-transfected or GFP transfected control cells
# Experimental: as §1, with “GFP, NR2B-BD and RafGRF-BD were expressed using the SindBis expression system. Mean±SEM. N=3.” left out
# Assay II: propidium iodide (PI) resistance. […] Cell death was measured as cellular uptake of PI (3,8-diamino-5-[3-([…])propyl]-6-phenyl phenanthridinium diiodide at 24 and 48 h after exposure to NMDA or ischemia. As shown in FIG. 7(B), the expression of both NR2B-BD and RasGRF1-BD increased the percentage of neuronal survival (e.g., the percentage of PI negative neurons) as compared to non-transfected or GFP transfected control cells.
molecule,measurement,setting,value
B1,average number NR2B-positive clusters,NR2B; compared to cells expressing GFP alone,did not reveal any changes
same,localization or density of NR2B or PSD-95,NR2B; cultured neurons expressing blocking peptides,did not change
same,decrease of neuronal cell death induced by glutamate and glycine,hippocampal neurons,47±2%
same,percentage of neuronal survival (PI negative neurons),CA1 pyramidal neurons,increased

# Reference: patent US7425614B2, “Neuroprotective therapeutics preventing ERK/MAPK activation through the NMDA receptor” (Children's Medical Center Corporation, priority 2003, dated 2008)
